B1: leuS site (dsDNA)
DNA 1: AATTCGGCAAAATCGGTAAG
DNA 2: CTTACCGATTTTGCCGAATT
B2: AT-rich 14-mer (dsDNA)
DNA 1: CGCGCATATATGCG
DNA 2: CGCATATATGCGCG

Legend:
Lsr2 = Lsr2 (Mycobacterium tuberculosis H37Rv, UniProt P9WIP7 1-112); experiment: EMSA; 0.95-7.6 uM Lsr2; conditions: protein: recombinant; (pET15-TEV, Ni-NTA); chain copies: 2; blunt
Lsr2BD WT = Lsr2BD WT (Mycobacterium tuberculosis H37Rv, UniProt P9WIP7 66-112); experiment: fluorescence anisotropy; pH 7.5; 4 nM DNA; conditions: protein: recombinant; tags: 6xHis; label: 5' Alexa Fluor 488; blunt

Binder | binding result (Lsr2) | Kd (Lsr2BD WT) [nM]
B1 | binds | 
B2 |  | 210 ± 60
